# Assay results as given in paper PMC2835468 (Matrix biology : journal of the International Society for …, 2009).
# Where two headings read alike, the source gives them in different places.
# T1: Catalytic domain of human MMP-1 (MMP-1cat) (human, UniProt P03956 100-269)
# T1 sequence (looked up): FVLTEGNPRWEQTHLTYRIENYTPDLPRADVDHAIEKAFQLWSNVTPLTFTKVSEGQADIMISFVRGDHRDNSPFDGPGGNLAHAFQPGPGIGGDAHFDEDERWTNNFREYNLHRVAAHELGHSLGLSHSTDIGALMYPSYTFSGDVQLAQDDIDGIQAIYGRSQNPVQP
# T2: ADAMTS5-5 (human ADAMTS-5, catalytic and disintegrin domain, C-terminal FLAG-tag) (human, UniProt Q9UNA0 262-566)
# T2 sequence (looked up): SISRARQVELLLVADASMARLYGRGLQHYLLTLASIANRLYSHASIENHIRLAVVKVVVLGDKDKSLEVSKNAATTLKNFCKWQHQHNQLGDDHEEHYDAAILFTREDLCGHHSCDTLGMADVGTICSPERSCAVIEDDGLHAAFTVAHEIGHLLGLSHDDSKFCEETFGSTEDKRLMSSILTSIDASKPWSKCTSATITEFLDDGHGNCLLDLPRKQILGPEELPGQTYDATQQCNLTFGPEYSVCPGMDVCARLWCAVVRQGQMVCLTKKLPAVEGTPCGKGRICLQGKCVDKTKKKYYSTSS
# T3: ADAMTS5-1 (full-length human ADAMTS-5, C-terminal FLAG-tag) (human, UniProt Q9UNA0 262-930)
# T3 sequence (looked up): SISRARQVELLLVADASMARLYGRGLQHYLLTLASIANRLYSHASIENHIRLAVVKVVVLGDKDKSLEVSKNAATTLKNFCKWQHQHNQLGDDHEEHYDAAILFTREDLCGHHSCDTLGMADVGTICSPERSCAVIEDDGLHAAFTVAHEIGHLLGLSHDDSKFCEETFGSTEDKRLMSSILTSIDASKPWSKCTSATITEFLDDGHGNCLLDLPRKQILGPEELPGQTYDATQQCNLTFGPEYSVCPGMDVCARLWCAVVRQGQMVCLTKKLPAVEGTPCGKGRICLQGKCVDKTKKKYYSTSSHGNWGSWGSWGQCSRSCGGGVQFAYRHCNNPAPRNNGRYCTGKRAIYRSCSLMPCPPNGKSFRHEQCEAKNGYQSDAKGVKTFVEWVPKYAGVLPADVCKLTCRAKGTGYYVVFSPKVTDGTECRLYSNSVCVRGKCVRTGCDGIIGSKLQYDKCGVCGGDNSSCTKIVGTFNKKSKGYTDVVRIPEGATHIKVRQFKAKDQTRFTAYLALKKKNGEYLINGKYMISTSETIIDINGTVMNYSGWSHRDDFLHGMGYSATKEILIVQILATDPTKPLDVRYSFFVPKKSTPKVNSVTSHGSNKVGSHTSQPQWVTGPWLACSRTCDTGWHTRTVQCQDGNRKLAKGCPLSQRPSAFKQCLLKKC
# T4: ADAMTS5-4 (human ADAMTS-5 deletion mutant, C-terminal FLAG-tag) (human, UniProt Q9UNA0 262-622)
# T4 sequence (looked up): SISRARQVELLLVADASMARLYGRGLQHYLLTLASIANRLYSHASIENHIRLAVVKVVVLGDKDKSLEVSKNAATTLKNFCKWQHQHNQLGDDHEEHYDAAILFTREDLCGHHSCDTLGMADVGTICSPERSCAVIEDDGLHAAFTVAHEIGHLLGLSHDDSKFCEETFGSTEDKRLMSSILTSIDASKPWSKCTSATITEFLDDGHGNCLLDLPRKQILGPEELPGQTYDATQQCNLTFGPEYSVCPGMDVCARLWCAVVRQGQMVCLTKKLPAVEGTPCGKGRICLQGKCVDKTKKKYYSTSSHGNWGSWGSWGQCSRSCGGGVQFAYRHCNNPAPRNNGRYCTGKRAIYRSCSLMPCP
# B1: FLAG-tagged glycosylated human TIMP-3 (full-length tissue inhibitor of metalloproteinases 3), expressed in HEK293 (natural protein, UniProt P35625 24-211, looked up)
# chain: CTCSPSHPQDAFCNSDIVIRAKVVGKKLVKEGPFGTLVYTIKQMKMYRGFTKMPHVQYIHTEASESLCGLKLEVNKYQYLLTGRVYDGKMYTGLCNFVERWDQLTLSQRKGLNYRYHLGCNCKIKSCYYLPCFVTSKNECLWTDMLSNFGYPGYQSKHYACIRQKGGYCSWYRGWAPPDKSIINATDP
# modifications: glycosylated (only the 27 kDa glycosylated form remained after purification; single N-glycosylation site in the C-terminal domain)
# Experiments:
# Assay in all cases: enzyme inhibition kinetics
# [1] = target: Catalytic domain of human MMP-3 (MMP-3cat) (human, UniProt P08254 100-272)
# [2] = target: T1, Catalytic domain of human MMP-1 …
# [3] = target: T2, ADAMTS5-5 (human ADAMTS-5, catalytic …)
# [4] = target: T3, ADAMTS5-1 (full-length human ADAMTS-5, …)
# [5] = target: T4, ADAMTS5-4 (human ADAMTS-5 deletion …)
# [6] = target: T3, ADAMTS5-1 (full-length human ADAMTS-5, …); remark: listed apart in the source
# Sequence of Catalytic domain of human MMP-3 (MMP-3cat) (P08254 100-272): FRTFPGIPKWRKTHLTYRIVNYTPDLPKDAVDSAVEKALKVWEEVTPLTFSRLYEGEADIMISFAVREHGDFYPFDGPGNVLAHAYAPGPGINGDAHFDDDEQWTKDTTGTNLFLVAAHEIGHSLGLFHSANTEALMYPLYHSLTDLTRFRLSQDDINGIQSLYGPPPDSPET
binder,measurement,setting,value
B1,Ki,[1],1 nM
same,Ki,[2],1.1 nM
same,Ki,[3],1.89 nM
same,Ki,[4],0.7 nM
same,Ki,[5],1.13 nM
same,Ki,[6],0.63 nM
